Source: US20210355194A1 (TWIST BIOSCIENCE, published 2021)
Read-outs that look alike come from different tables or passages of the source.

Legend:
[1] = target: T1, ACE2 (human, UniProt Q9BYF1 18-740)
[2] = target: T1, ACE2; remark: listed apart in the source
[3] = target: T2, Acro SARS-CoV-2 (COVID-19) S1 protein (SARS-CoV-2, UniProt P0DTC2 16-685); assay: SPR
T2 construct: also called SARS-CoV-2 S1

T1 sequence (Q9BYF1 18-740 limits assumed): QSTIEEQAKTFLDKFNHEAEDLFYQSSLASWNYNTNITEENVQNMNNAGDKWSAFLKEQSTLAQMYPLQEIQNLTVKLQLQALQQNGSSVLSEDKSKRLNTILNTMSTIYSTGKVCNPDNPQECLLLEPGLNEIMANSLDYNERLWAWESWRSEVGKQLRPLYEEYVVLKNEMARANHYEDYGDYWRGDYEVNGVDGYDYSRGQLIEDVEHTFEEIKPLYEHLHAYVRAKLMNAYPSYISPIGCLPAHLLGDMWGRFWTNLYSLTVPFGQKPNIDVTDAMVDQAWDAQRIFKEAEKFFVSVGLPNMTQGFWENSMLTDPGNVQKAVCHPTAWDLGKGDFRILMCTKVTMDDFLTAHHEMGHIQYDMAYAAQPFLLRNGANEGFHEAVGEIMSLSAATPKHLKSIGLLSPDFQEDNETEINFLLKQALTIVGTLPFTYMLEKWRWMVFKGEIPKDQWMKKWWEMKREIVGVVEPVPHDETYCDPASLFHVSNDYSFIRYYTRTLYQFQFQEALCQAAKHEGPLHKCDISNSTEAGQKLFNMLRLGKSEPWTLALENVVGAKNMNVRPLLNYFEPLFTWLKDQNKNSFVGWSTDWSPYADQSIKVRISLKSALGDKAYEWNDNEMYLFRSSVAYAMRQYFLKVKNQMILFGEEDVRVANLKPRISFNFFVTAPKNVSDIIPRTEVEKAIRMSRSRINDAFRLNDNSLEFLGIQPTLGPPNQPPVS

| Binder | koff [1] [s⁻¹] | kon [1] [M⁻¹ s⁻¹] | Kd [2] [nM] | koff [2] [s⁻¹] | kon [2] [M⁻¹ s⁻¹] | Kd [3] [nM] |
| --- | --- | --- | --- | --- | --- | --- |
| ACE2 variant antibody 4-63 (VHH) VHH: EVQLVESGGGLVQPGGSLRLSCAASGRTFSDYTMGWFRQAPGKEREFVAAINWSGGYTYYADSVKGRFTISADNSKNTAYLQMNSLKPEDTAVYYCATDPPLFWGQGTLVTVSS | 0.00105 | 610000 | 1.7 | 0.00105 | 610000 |  |
| ACE2 variant antibody 4-67 (VHH) VHH: EVQLVESGGGLVQPGGSLRLSCAASGRTFSDDTMGWFRQAPGKEREFVAAINWSGDSTYYADSVKGRFTISADNSKNTAYLQMNSLKPEDTAVYYCATDPPLFWGQGTLVTVSS | 0.00214 | 93900 | 22.8 | 0.00214 | 93900 |  |
| ACE2 variant antibody 4-69 (VHH) VHH: EVQLVESGGGLVQPGGSLRLSCAASGRTFSDDAMGWFRQAPGKEREFVAAINWSGGTTRYADSVKGRFTISADNSKNTAYLQMNSLKPEDTAVYYCATDPPLFWGQGTLVTVSS | 0.00256 | 99400 | 25.8 | 0.00256 | 99400 |  |
| ACE2 variant antibody 4-74 (VHH) VHH: EVQLVESGGGLVQPGGSLRLSCAASGLTFSDDTMGWFRQAPGKEREFVAAVSWSGGNTYYADSVKGRFTISADNSKNTAYLQMNSLKPEDTAVYYCATDPPLFWGQGTLVTVSS | 0.00285 | 248000 | 11.5 | 0.00285 | 248000 |  |
| ACE2 variant antibody 4-75 (VHH) VHH: EVQLVESGGGLVQPGGSLRLSCAASGRTFGDDTMGWFRQAPGKEREFVAAINWTGGYTPYADSVKGRFTISADNSKNTAYLQMNSLKPEDTAVYYCATDPPLFWGQGTLVTVSS | 0.00478 | 299000 | 16 | 0.00478 | 299000 |  |
| ACE2 variant antibody 4-76 (VHH) VHH: EVQLVESGGGLVQPGGSLRLSCAASGRTFGDYAMGWFRQAPGKERELVAPINWSGGSTYYADSVKGRFTISADNSKNTAYLQMNSLKPEDTAVYYCATDPPLFWGQGTLVTVSS | 0.00428 | 135000 | 31.8 | 0.00428 | 135000 |  |
| ACE2 variant antibody 4-78 (VHH) VHH: EVQLVESGGGLVQPGGSLRLSCAASGRTFSDDTMGWFRQAPGKEREFVAGMTWSGSSTFYADSVKGRFTISADNSKNTAYLQMNSLKPEDTAVYYCATDPPLFWGQGTLVTVSS | 0.00263 | 247000 | 10.7 | 0.00263 | 247000 |  |
| ACE2 variant antibody 4-82 (VHH) VHH: EVQLVESGGGLVQPGGSLRLSCAASGRTFGDYAMGWFRQAPGKEREFVAAINWSGGYTRYADSVKGRFTISADNSKNTAYLQMNSLKPEDTAVYYCATDPPLFWGQGTLVTVSS | 0.00333 | 301000 | 11.1 | 0.00333 | 301000 |  |
| ACE2 variant antibody 4-52 (VHH) VHH: EVQLVESGGGLVQPGGSLRLSCAASGRSFSNSVMGWFRQAPGKEREFVARITWNGGSTYYADSVKGRFTISADNSKNTAYLQMNSLKPEDTAVYYCATTENPNPRWGQGTLVTVSS | 0.00149 | 126000 | 11.8 | 0.00149 | 126000 |  |
| ACE2 variant antibody 4-39 (VHH) VHH: EVQLVESGGGLVQPGGSLRLSCAASGRTFSNAAMGWFRQAPGKEREFVARILWTGASRNYADSVKGRFTISADNSKNTAYLQMNSLKPEDTAVYYCATTENPNPRWGQGTLVTVSS | 0.0137 | 136000 | 101 | 0.0137 | 136000 |  |
| ACE2 variant antibody 4-56 (VHH) VHH: EVQLVESGGGLVQPGGSLRLSCAASGFSLDYYGMGWFRQAPGKERESVAAISWNGDFTAYADSVKGRFTISADNSKNTAYLQMNSLKPEDTAVYYCAKRANPTGAYFDYWGQGTLVTVSS | 0.00237 | 130000 | 18.2 | 0.00237 | 130000 |  |
| ACE2 variant antibody 4-57 (VHH) VHH: EVQLVESGGGLVQPGGSLRLSCAASGLTFRNYAMGWFRQAPGKEREFVAAIGSGGYTDYADSVKGRFTISADNSKNTAYLQMNSLKPEDTAVYYCAVKPGWVARDPSQYNWGQGTLVTVSS | 0.00239 | 307000 | 7.8 | 0.00239 | 307000 |  |
| ACE2 variant antibody 4-25 (VHH) VHH: EVQLVESGGGLVQPGGSLRLSCAASGGTFSRYAMGWFRQAPGKEREWVSAVDSGGSTYYADSVKGRFTISADNSKNTAYLQMNSLKPEDTAVYYCAASPSLRSAWQWGQGTLVTVSS | 0.00303 | 78700 | 38.5 | 0.00303 | 78700 |  |
| ACE2 variant antibody 3-8 (antibody, V domains shown) VH: EVQLLESGGGLVQPGGSLRLSCAASGFTFRSHAMSWVRQAPGKGLEWVSSISGGGASTYYADSVKGRFTISRDNSKNTLYLQMNSLRAEDTAVYYCARVKYLTTSSGWPRPYFDNWGQGTLVTVSS VL: DIQMTQSPSSLSASVGDRVTITCRASQSIGKYLNWYQQKPGKAPKLLIYASSTLQRGVPSRFSGSGSGTDFTLTISSLQPEDFATYYCQQSLSTPFTFGQGTKVEIK | 0.00509 | 114000 | 44.6 | 0.00509 | 114000 |  |
| ACE2 variant antibody 3-9 (antibody, V domains shown) VH: EVQLLESGGGLVQPGGSLRLSCAASGFTFRSYAMSWVRQAPGKGLEWVSSISGGGASTYYADSVKGRFTISRDNSKNTLYLQMNSLRAEDTAVYYCARVKYLTTSSGWPRPYFDNWGQGTLVTVSS VL: DIQMTQSPSSLSASVGDRVTITCRASQSIGKYLNWYQQKPGKAPKLLIYASSTLQRGVPSRFSGSGSGTDFTLTISSLQPEDFATYYCQQSFSTPFTFGQGTKVEIK | 0.00569 | 83600 | 68 | 0.00569 | 83600 |  |
| ACE2 variant antibody 3-12 (antibody, V domains shown) VH: EVQLLESGGGLVQPGGSLRLSCAASGFTFRSHAMNWVRQAPGKGLEWVSAISGSGGSTNYADSVKGRFTISRDNSKNTLYLQMNSLRAEDTAVYYCARGLKFLEWLPSAFDIWGQGTLVTVSS VL: DIQMTQSPSSLSASVGDRVTITCRTSQSINTYLNWYQQKPGKAPKLLIYGASNVQSGVPSRFSGSGSGTDFTLTISSLQPEDFATYYCQQSYRIPRTFGQGTKVEIK | 0.00649 | 15500 | 420 | 0.00649 | 15500 |  |
| ACE2 variant antibody 3-13 (antibody, V domains shown) VH: EVQLLESGGGLVQPGGSLRLSCAASGFTITNYAMSWVRQAPGKGLEWVSGISGSGAGTYYADSVKGRFTISRDNSKNTLYLQMNSLRAEDTAVYYCARHTWWKGAGFFDHWGQGTLVTVSS VL: DIQMTQSPSSLSASVGDRVTITCRASQSIGRYLNWYQQKPGKAPKLLIYAASSLKSGVPSRFSGSGSGTDFTLTISSLQPEDFATYYCQQSYSLPRTFGQGTKVEIK | 0.0102 | 80900 | 126 | 0.0102 | 80900 |  |
| variant 6-3 (Fc fusion) VHH: EVQLVESGGGLVQPGGSLRLSCAASGFTFSPSWMGWFRQAPGKEREFVATINEYGGRNYADSVKGRFTISADNSKNTAYLQMNSLKPEDTAVYYCARVDRDFDYWGQGTLVTVSS |  |  |  |  |  | 12.4 |
| variant 6-81 (Fc fusion) VHH: EVQLVESGGGLVQPGGSLRLSCAASGFIGNYHAMGWFRQAPGKEREFVAAVTWSGGTTNYADSVKGRFTISADNSKNTAYLQMNSLKPEDTAVYYCAREGYYYDSSGYPYYFDYWGQGTLVTVSS |  |  |  |  |  | 12.9 |
| variant 6-43 (Fc fusion) VHH: EVQLVESGGGLVQPGGSLRLSCAASGRTFSSYAMMGWFRQAPGKEREFVASVNWDASQINYADSVKGRFTISADNSKNTAYLQMNSLKPEDTAVYYCTTLGAVYFDSSGYHDYFDYWGQGTLVTVSS |  |  |  |  |  | 17.9 |
| variant 6-46 (Fc fusion) VHH: EVQLVESGGGLVQPGGSLRLSCAASGLTFSAMGWFRQAPGKEREFVALIRRDGSTIYADSVKGRFTISADNSKNTAYLQMNSLKPEDTAVYYCAALGILFGYDAFDIWGQGTLVTVSS |  |  |  |  |  | 18.1 |
| variant 6-9 (Fc fusion) VHH: EVQLVESGGGLVQPGGSLRLSCAASGFTFDYYAMGWFRQAPGKEREFVSAIDSEGRTSYADSVKGRFTISADNSKNTAYLQMNSLKPEDTAVYYCARWGPFDIWGQGTLVTVSS |  |  |  |  |  | 18.5 |
| variant 6-63 (Fc fusion, also called VHH nanobody 6-63) VHH: EVQLVESGGGLVQPGGSLRLSCAASGQTFNMGWFRQAPGKEREFVAAIGSGGSTSYADSVKGRFTISADNSKNTAYLQMNSLKPEDTAVYYCWRLGNDYFDYWGQGTLVTVSS |  |  |  |  |  | 21.8 |
| variant 6-37 (Fc fusion) VHH: EVQLVESGGGLVQPGGSLRLSCAASGHTFSTSWMGWFRQAPGKEREFVATINSLGGTNYADSVKGRFTISADNSKNTAYLQMNSLKPEDTAVYYCARVSSGDYGMDVWGQGTLVTVSS |  |  |  |  |  | 22.5 |
| variant 6-103 (Fc fusion) VHH: EVQLVESGGGLVQPGGSLRLSCAASGRTSSPIAMGWFRQAPGKEREPVAVRWSDDYTYYADSVKGRFTISADNSKNTAYLQMNSLKPEDTAVYYCAKKLGGYYAFDIWGQGTLVTVSS |  |  |  |  |  | 23.6 |
| variant 6-5 (Fc fusion) VHH: EVQLVESGGGLVQPGGSLRLSCAASGRTFTMGWFRQAPGKEREFVASTNSAGSTNYADSVNGRFTISADNSKNTAYLQMNSLKPEDTAVYYCTTVDQYFDYWGQGTLVTVSS |  |  |  |  |  | 24.9 |
